Reference: patent publication US20110052551A1, “CARDIAC MYOCYTE MORPHOGENIC COMPOSITIONS AND METHODS OF USE THEREFOR” (priority 2008, published 2011)

Assays:
Type in all cases: cell-based, mice
unfractionated BMMNCs [1] = assay: Proliferation of unfractionated BMMNCs (Trypan blue cell count); settings: cultures initiated with 10^4 cells
Procedure: Assessment of cellular proliferation. To study proliferation within each experimental group, unfractionated BMMNCs (n=1×10^4) were cultured as above in separate experiments (see FIG. 9A). Cells were monitored by phase contrast microscopy during culture in a humidified 5% CO2 incubator at 37° C. for up to 21 days. The medium was replenished every 6 days and expanded cells were harvested by trypsinization and gentle resuspension on days 8, 16, and 21. Cell number and viability was determined by Trypan blue staining, and the fold-increase in cell number over time was analyzed.

unfractionated BMMNCs [2] = assay: qRT-PCR of cardiac-specific mRNA levels in cultured BMMNCs; settings: 21 days of culture
Text: Induction of differentiation. To assess the influence of ectopic expression of Wnt11 on BMMNC differentiation, Wnt11 conditioned medium (Wnt11-CM) was generated. Specifically, unfractionated BMMNCs were co-cultured with Wnt11-expressing HEK-293 cells (Wnt11/293-2; designated as Wnt11-CM), under the same conditions used to culture BMMNCs. In order to achieve strict separation of cell types during co-culture experiments, BMMNC and Wnt11/293 cells were separated into upper and lower chambers of a TRANSWELL® co-culture system. […]
Assessment of mRNA expression by quantitative real-time RT-PCR (qRT-PCR). […] Prior to mRNA extraction, cell number was determined and calculated by Trypan blue exclusion. cDNA was generated from freshly isolated (designated as baseline) and cultured unfractionated BMMNCs at days 0, 3, 7, and 21 (see FIG. 9A) using QUANTISCRIPT REVERSE TRANSCRIPTASE™ (Qiagen Inc., Valencia, Calif., United States of America) contained in RT master mix of Cell to cDNA kits according to manufacturer's protocol. […]
(§1) To avoid amplification of contaminating DNA, all validated qRT-PCR primers were designed to cross […] sequences within the cDNA to be amplified. Quantitative qRT-PCR analysis was performed in an ABI Prism 7900H sequence detection system (Applied Biosystems, Foster City, Calif.) using QUANTITECT™ SYBR® Green Real Time PCR kits. […]

unfractionated BMMNCs [3] = assay: qRT-PCR of Wnt3a and β-catenin expression in cultured BMMNCs; settings: 21 days, relative to baseline
Procedure: Assessment of mRNA expression by quantitative real-time RT-PCR (qRT-PCR). All qRT-PCR reagents and primers were purchased from Qiagen Inc. (Valencia, Calif., United States of America). Prior to mRNA extraction, cell number was determined and calculated by Trypan blue exclusion. cDNA was generated from freshly isolated (designated as baseline) and cultured unfractionated BMMNCs at days 0, 3, 7, and 21 (see FIG. 9A) using QUANTISCRIPT REVERSE TRANSCRIPTASE™ (Qiagen Inc., Valencia, Calif., United States of America) contained in RT master mix of Cell to cDNA kits according to manufacturer's protocol. […]
as §1, with “kits. Each 50 μl qRT-PCR reaction contained 2 μl (approximately 50 ng) of cDNA, 5 μl of 1× primer mix (containing approximately 500 nM sense and anti-sense primers) and 25 μl of 2× QUANTITECT™ SYBR® Green master mix.” for “kits.”
The PCR product level is calculated from the threshold cycle (Ct). That is, the amplification cycle number at which exponential PCR-generated gene-specific fluorescence is first detected (above a fixed threshold level). […]

B1: Wnt3a: recombinant Wnt3a protein, canonical Wnt, used at 150 ng/ml (protein, UniProt P56704 19-352, looked up)
Protein Wnt-3a: SYPIWWSLAVGPQYSSLGSQPILCASIPGLVPKQLRFCRNYVEIMPSVAEGIKIGIQECQHQFRGRRWNCTTVHDSLAIFGPVLDKATRESAFVHAIASAGVAFAVTRSCAEGTAAICGCSSRHQGSPGKGWKWGGCSEDIEFGGMVSREFADARENRPDARSAMNRHNNEAGRQAIASHMHLKCKCHGLSGSCEVKTCWWSQPDFRAIGDFLKDKYDSASEMVVEKHRESRGWVETLRPRYTYFKVPTERDLVYYEASPNFCEPNPETGSFGTRDRTCNVSSHGIDGCDLLCCGRGHNARAERRREKCRCVFHWCCYVSCQECTRVYDVHTCK
increase in cell number (unfractionated BMMNCs [1]; day 16): 110±0.1 fold | increase in cell number (unfractionated BMMNCs [1]; day 21): 297±0.1 fold | cardiac-specific transcripts (unfractionated BMMNCs [2]): no cardiac-specific transcripts were detected | increase in β-catenin expression (unfractionated BMMNCs [3]): 183.4±0.3 fold
